According to US12240900 (MEDICOVESTOR, dated 2025):

B1: lead fully-human anti-FRalpha IgG1 antibody (antibody according to SEQ ID NO: 3-12) (antibody, V domains shown)
VH: EVQLLESGGGLVKPGGSLRLSCAASGFTFSSYTMNWVRQAPGKGLEWVSSISSGGGYIYYADSVKDRFTISRDNAKNSLYLQMNSLRAEDTAVYYCAKGDTIMIISAWGQGTTVTVSS
VL: DIQLTQSPSTLSASVGDRVTITCRASQSISSWLAWHQQKPGKAPKLLIYAASSLQNGVPSRFSGSGFGTDFTLTISSLQPEDFATYYCQQASSFPLTFGGGTKVEIKR
notes: Human IgG1 / kappa; also called lead antibody; the anti-FRalpha IgG of this disclosure
B2: Mirvetuximab (antibody, V domains shown)
VH: QVQLVQSGAEVVKPGASVKISCKASGYTFTGYFMNWVKQSPGQSLEWIGRIHPYDGDTFYNQKFQGKATLTVDKSSNTAHMELLSLTSEDFAVYYCTRYDGSRAMDYWGQGTTVTVSS
VL: DIVLTQSPLSLAVSLGQPAIISCKASQSVSFAGTSLMHWYHQKPGQQPRLLIYRASNLEAGVPDRFSGSGSKTDFTLTISPVEAEDAATYYCQQSREYPYTFGGGTKLEIK

How the values were obtained:
[1] = molecular target: T1, human FRalpha expressed on cells (transfected HEK293 cells; SKOV3 human ovarian cancer cells) (human, UniProt P15328 25-234); assay: flow cytometry on SKOV3 human ovarian cancer cells that express FRalpha
T1 construct: whole, on cells; also called folate receptor alpha
Procedure: (§1) The affinity of each antibody was then assessed by flow cytometry. Briefly, HEK293 cells transfected to express FRalpha were washed with fluorescence-activated cell sorting (FACS) buffer, to which the IgGs were added at varying concentrations and incubated at 4 degrees Celsius for 60 minutes. The cells were then centrifuged and washed twice in FACS buffer. A phycoerythrin-labelled anti-human IgG, Fcgamma antibody (109-115-098; Jackson ImmunoResearch, Pennsylvania, United States) was then added to the cells at a 1:200 dilution and incubated at 4 degrees Celsius for 30 minutes. The cells were then washed, resuspended in FACS buffer, and counted by flow cytometry. Results are depicted in FIG. 4.
The flow cytometry experiment of the preceding paragraph was repeated with a human ovarian cancer cell line that expresses FRalpha, SKOV3. Results are depicted in FIGS. 5A and 5B. […] The antibody according to SEQ ID NO: 3-12 was then designated the lead antibody for further development.

[2] = molecular target: T2, fusion protein containing the extracellular domain of human FRalpha and a polyhistidine tag (human, UniProt P15328 25-233); assay: ELISA, human FRalpha ECD-His coated
T2 construct: extracellular domain; Coated on ELISA plates; also called human FRalpha extracellular domain; not shown: polyhistidine tag
Procedure: (§2) The affinity of each IgG1 for FRalpha was confirmed by ELISA. Briefly, a fusion protein containing the extracellular domain of human FRalpha and a polyhistidine tag was used to coat ELISA plates, which were washed three times with phosphate-buffered saline (PBS) containing 0.1 percent polysorbate 20 (PBST), then blocked with PBS containing 5 percent powdered milk (PBSM), and then washed three more times with PBST. Wells were then incubated with antibodies at varying concentrations for 60 minutes at room temperature in 1 percent PBSM. Wells were then washed three times with PBST, after which the secondary, horseradish-peroxidase-conjugated antibody anti-human-IgG-Fc-HRP (ab97225, Abcam, United Kingdom) was added at a 1:8000 dilution in 1 percent PBSM for 50 minutes at room temperature. The wells were then washed six times with PBST, after which 3,3', 5,5"-tetramethylbenzidine (TMB) was added. The reaction was stopped with 2 molar sulfuric acid, and the TMB diamine product was quantified at 450 nanometers in a plate reader. Results are depicted in FIG. 2.

[3] = molecular target: T1, human FRalpha expressed on cells …; assay: flow cytometry on HEK293 cells transfected to express FRalpha
Procedure: as §1

[4] = molecular target: T3, fusion protein containing the extracellular domain of cynomolgus FRalpha and a polyhistidine tag (cynomolgus, UniProt A0A2K5U044 25-233); assay: ELISA, cynomolgus FRalpha ECD-His coated
T3 construct: extracellular domain; Coated on ELISA plates; also called cynomolgus FRalpha extracellular domain; not shown: polyhistidine tag
Procedure: as §2
The ELISA of the preceding paragraph was repeated with a fusion protein containing the extracellular domain of cynomolgus FRalpha and a polyhistidine tag. Results are depicted in FIG. 3.

T1 sequence (P15328 25-234): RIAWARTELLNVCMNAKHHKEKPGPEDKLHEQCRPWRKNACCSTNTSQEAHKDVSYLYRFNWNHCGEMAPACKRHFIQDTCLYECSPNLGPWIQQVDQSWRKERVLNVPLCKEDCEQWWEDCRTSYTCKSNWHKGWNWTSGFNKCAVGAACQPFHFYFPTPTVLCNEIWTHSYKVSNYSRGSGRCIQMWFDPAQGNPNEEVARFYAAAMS
T2 sequence (P15328 25-233 limits assumed): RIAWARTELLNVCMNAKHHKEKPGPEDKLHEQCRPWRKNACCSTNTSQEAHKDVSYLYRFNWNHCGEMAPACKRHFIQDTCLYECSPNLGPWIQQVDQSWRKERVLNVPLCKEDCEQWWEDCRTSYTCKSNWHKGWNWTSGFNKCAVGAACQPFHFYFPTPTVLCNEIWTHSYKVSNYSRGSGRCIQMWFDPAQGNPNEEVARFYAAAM
T3 sequence (A0A2K5U044 entry or part of it): as the sequence (P15328 25-233 limits assumed) above, with I2T, W4R, R37K, A146P, H171Y counted along it

Row | Binder | EC50 [1] | EC50 [2] | EC50 [3] | EC50 [4]
1 | B1 | < 1 nM | ~0.05 nM | ~5 nM | ~0.06 nM
2 | B2 |  | ~0.12 nM | ~4 nM | ~0.16 nM
